This note sets out measurements from patent US20210206856A1 (PANDION OPERATIONS, published 2021).

First the molecules themselves.
T1: mouse MAdCAM expressed on cells (mouse, UniProt Q61826 22-405)
T1 construct: whole, on cells
T1 sequence (looked up): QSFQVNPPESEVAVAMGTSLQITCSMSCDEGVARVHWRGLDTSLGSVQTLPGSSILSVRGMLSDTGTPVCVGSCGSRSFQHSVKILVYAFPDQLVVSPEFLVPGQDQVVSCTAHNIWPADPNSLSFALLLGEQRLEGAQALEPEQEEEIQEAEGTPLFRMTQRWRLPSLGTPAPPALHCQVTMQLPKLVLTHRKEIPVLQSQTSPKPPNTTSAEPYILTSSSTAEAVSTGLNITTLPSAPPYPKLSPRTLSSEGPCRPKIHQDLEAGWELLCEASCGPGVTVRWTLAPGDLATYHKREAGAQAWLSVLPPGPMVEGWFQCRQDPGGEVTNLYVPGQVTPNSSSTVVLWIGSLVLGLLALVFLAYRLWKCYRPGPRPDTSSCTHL

T2: human MAdCAM expressed on cells (human, UniProt Q13477 19-382)
T2 construct: whole, on cells; also called MADCAM1
T2 sequence (looked up): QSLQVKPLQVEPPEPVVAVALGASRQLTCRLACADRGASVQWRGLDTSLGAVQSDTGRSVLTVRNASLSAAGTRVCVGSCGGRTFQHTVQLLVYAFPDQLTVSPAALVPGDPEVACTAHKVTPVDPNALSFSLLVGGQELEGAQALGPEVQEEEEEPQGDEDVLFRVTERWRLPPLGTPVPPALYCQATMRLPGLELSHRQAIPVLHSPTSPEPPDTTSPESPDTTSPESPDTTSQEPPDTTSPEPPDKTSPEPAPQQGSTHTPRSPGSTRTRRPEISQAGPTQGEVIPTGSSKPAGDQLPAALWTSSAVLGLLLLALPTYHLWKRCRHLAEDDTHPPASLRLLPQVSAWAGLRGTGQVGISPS

B1: MAdCAM Antibody Table 1 Clone 55 (scFv)
scFv: QVQLVQSGAEVKKPGASVKVSCKASGYTFTSYYMHWVRQAPGQGLEWMGIIDPSGGSTSYAQKFQGRVTMTRDTSTSTVYMELSSLRSEDTAVYYCAREEWSSGGVGYFDYWGQGTLVTVSSGGGGSGGGGSGGGGSGGGGSDIQMTQSPSSLSASVGDRVTITCRASQGISSYLAWYQQKPGKAPKLLIYATSSLQTGVPSRFSGSGSGTDFTLTISSLQPEDFATYYCQQTYSIPITFGQGTRLEIK
B2: MAdCAM Antibody Table 1 Clone 52 (scFv)
scFv: EVQLLESGGGLVQPGGSLRLSCAASGFTFSNSDMNWVRQAPGKGLEWVAHIWNDGSQKYYADSVKGRFTISRDNSKNTLYLQMNSLRAEDTAVYYCARDRTDPGYSSAMDVWGQGTTVTVSSGGGGSGGGGSGGGGSGGGGSDIQMTQSPSSLSASVGDRVTITCRASQDIRNYLGWYQQKPGKAPKLLIYDASSLETGVPSRFSGSGSGTDFTLTISSLQPEDFATYYCQQATSLPLTFGGGTKVEIK
B3: MAdCAM Antibody Table 1 Clone 47 (scFv)
scFv: EVQLLESGGGLVQPGGSLRLSCAASGFSFSDYGMHWVRQAPGKGLEWVSAISGSGGSTYYADSVKGRFTISRDNSKNTLYLQMNSLRAEDTAVYYCARDGGWQPAAILDYWGQGTLVTVSSGGGGSGGGGSGGGGSGGGGSDIQMTQSPSSLSASVGDRVTITCRASQGISNNLNWYQQKPGKAPKLLIYDASNLETGVPSRFSGSGSGTDFTLTISSLQPEDFATYYCQQSYSTPLTFGGGTKVEIK
B4: MAdCAM Antibody Table 1 Clone 45 (scFv)
scFv: EVQLLESGGGLVQPGGSLRLSCAASGFSVSSNYMSWVRQAPGKGLEWVAGISYDGSSKPYADSVKGRFTISRDNSKNTLYLQMNSLRAEDTAVYYCARSRGIAARPLQHWGQGTLVTVSSGGGGSGGGGSGGGGSGGGGSDIVMTQSPDSLAVSLGERATINCKSSQSVLYSSNNKNYLAWYQQKPGQPPKLLIYWASTRQSGVPDRFSGSGSGTDFTLTISSLQAEDVAVYYCHQYYGHPPTFGGGTKVEIK
B5: MAdCAM Antibody Table 1 Clone 46 (scFv)
scFv: B4 scFv with W196Q
B6: MAdCAM Antibody Table 1 Clone 53 (scFv)
scFv: QVQLVQSGAEVKKPGASVKVSCKASGYTFTSYDINWVRQAPGQGLEWMGWMNPNSGNTGYAQKFQGRVTMTRDTSTSTVYMELSSLRSEDTAVYYCAKDSDYSNLLWDYWGQGTLVTVSSGGGGSGGGGSGGGGSGGGGSDIQMTQSPSSLSASVGDRVTITCRASQDITNDLGWYQQKPGKAPKLLIYQASSLESGVPSRFSGSGSGTDFTLTISSLQPEDFATYYCQQSYTIPLTFGQGTKVEIK
B7: MAdCAM Antibody Table 1 Clone 54 (scFv)
scFv: EVQLLESGGGLVQPGGSLRLSCAASGFTFGDYAMSWVRQAPGKGLEWVAVVSYDGTNKYYADSVKGRFTISRDNSKNTLYLQMNSLRAEDTAVYYCAKDICSSTSCYFDLWGRGTLVTVSSGGGGSGGGGSGGGGSGGGGSDIQMTQSPSSLSASVGDRVTITCRASQNINNYVNWYQQKPGKAPKLLIYDASNLETGVPSRFSGSGSGTDFTLTISSLQPEDFATYYCQQANSFPPTFGQGTRLEIK
B8: MAdCAM Antibody Table 1 Clone 48 (scFv)
scFv: EVQLLESGGGLVQPGGSLRLSCAASGFTFSDHGMHWVRQAPGKGLEWVSVIYGGESTYYADSVKGRFTISRDNSKNTLYLQMNSLRAEDTAVYYCARDPAVAGGGIFDYWGQGTLVTVSSGGGGSGGGGSGGGGSGGGGSDIQMTQSPSSLSASVGDRVTITCRASQGISNYLAWYQQKPGKAPKLLIYDASNLETGVPSRFSGSGSGTDFTLTISSLQPEDFATYYCQQSYSTCYTFGQGTKLEIK
B9: MAdCAM Antibody Table 1 Clone 58 (scFv)
scFv: QVQLVQSGAEVKKPGASVKVSCKASGYTFTGYYMHWVRQAPGQGLEWMGIINPSGGNTKYAQKFQGRVTMTRDTSTSTVYMELSSLRSEDTAVYYCTTADYYYYMDVWGKGTTVTVSSGGGGSGGGGSGGGGSGGGGSDIQMTQSPSSLSASVGDRVTITCRASQGISNYLAWYQQKPGKAPKLLIYAASSLQSGVPSRFSGSGSGTDFTLTISSLQPEDFATYYCQQYYSNADFGQGTKVEIK
B10: MAdCAM Antibody Table 1 Clone 50 (scFv)
scFv: QVQLVQSGAEVKKPGASVKVSCKASGYTFTSYDINWVRQAPGQGLEWMGWINPNSGTTGYAQKFQGRVTMTRDTSTSTVYMELSSLRSEDTAVYYCARSPYYYYGMDVWGQGTTVTVSSGGGGSGGGGSGGGGSGGGGSDIQMTQSPSSLSASVGDRVTITCRASHFISRWVAWYQQKPGKAPKLLIYAASTLQSGVPSRFSGSGSGTDFTLTISSLQPEDFATYYCQQSYSGISFGPGTKVDIK
B11: MAdCAM Antibody Table 1 Clone 51 (scFv)
scFv: EVQLLESGGGLVQPGGSLRLSCAASGFTFNNYGMNWVRQAPGKGLEWVSRINSDGSSTSYADSVKGRFTISRDNSKNTLYLQMNSLRAEDTAVYYCARGAYYYYYMDVWGQGTLVTVSSGGGGSGGGGSGGGGSGGGGSEIVMTQSPATLSVSPGERATLSCRASQSVSGSYLAWYQQKPGQAPRLLIYATSSRASGIPARFSGSGSGTEFTLTISSLQSEDFAVYYCQQYYSGLTFGQGTKVEIK
B12: MAdCAM Antibody Table 1 Clone 57 (scFv)
scFv: QVQLVQSGAEVKKPGASVKVSCKASGYTFTSYYMHWVRQAPGQGLEWMGIINPSGGSTSYAQKFQGRVTMTRDTSTSTVYMELSSLRSEDTAVYYCARDSVAGTGGRYYGMDVWGQGTLVTVSSGGGGSGGGGSGGGGSGGGGSDIQMTQSPSSLSASVGDRVTITCRASQGISNYFAWYQQKPGKAPKLLIYAASSLQGGVPSRFSGSGSGTDFTLTISSLQPEDFATYYCQQSYSLPYTFGQGTKLEIK
B13: MAdCAM Antibody Table 1 Clone 43 (scFv)
scFv: EVQLLESGGGLVQPGGSLRLSCAASGFTFDDFAMHWVRQAPGKGLEWVSGISGNGDSRYYADSVKGRFTISRDNSKNTLYLQMNSLRAEDTAVYYCARDASYGGNYGMDVWGQGTTVTVSSGGGGSGGGGSGGGGSGGGGSDIQMTQSPSSLSASVGDRVTITCQASQDIRNYLNWYQQKPGKAPKLLIYKASTLESGVPSRFSGSGSGTDFTLTISSLQPEDFATYYCQQANSFPLTFGPGTKVDIK
B14: MAdCAM Antibody Table 1 Clone 56 (scFv)
scFv: EVQLLESGGGLVQPGGSLRLSCAASGFTFDDYAMHWVRQAPGKGLEWVSAISGGGEDTYYADSVKGRFTISRDNSKNTLYLQMNSLRAEDTAVYYCARDASYGGNYGMDVWGQGTTVTVSSGGGGSGGGGSGGGGSGGGGSDIQMTQSPSSLSASVGDRVTITCQASQDIRNYLNWYQQKPGKAPKLLIYKASSLESGVPSRFSGSGSGTDFTLTISSLQPEDFATYYCQQANSYPVTFGGGTKVEIK
B15: MAdCAM Antibody Table 1 Clone 49 (scFv)
scFv: QVQLVQSGAEVKKPGASVKVSCKASGDTFTGYYIHWVRQAPGQGLEWMGWINPNSGGTNYAQKFQGRVTMTRDTSTSTVYMELSSLRSEDTAVYYCARSGLWLGSYYGMDVWGQGTLVTVSSGGGGSGGGGSGGGGSGGGGSDIQMTQSPSSLSASVGDRVTITCRASQTISIWLAWYQQKPGKAPKLLIYDASTLQSGVPSRFSGSGSGTDFTLTISSLQPEDFATYYCQQYSSYPLTFGQGTKVEIK
B16: MAdCAM Antibody Table 1 Clone 44 (scFv)
scFv: EVQLVESGGGLVKPGGSLRLSCAASGFTFSSYWMSWVRQAPGKGLEWVSAIGTGGGTYYAAPVKGRFTISRDDSKNTLYLQMNSLKTEDTAVYYCAREWLVPYYGMDVWGQGTTVTVSSGGGGSGGGGSGGGGSGGGGSDIQMTQSPSSLSASVGDRVTITCRASQSISRWLAWYQQKPGKAPKLLIYGASNLQSGVPSRFSGSGSGTDFTLTISSLQPEDFATYYCQQSYSTPWTFGQGTKVEIK

Numbering of substitutions follows the chain as printed.

The target in the first experiment is T1, mouse MAdCAM expressed on cells. Description: cell binding.
For B1, the binding result is “no binding”.
Still for that read-out and setting: the same measure for B2: “no binding”.
For the molecule B3, the binding result was “no binding”.
On the same count and under the same terms, the same measure for B4: “no binding”.
Same read-out and setting: the result for B5 reads “no binding”.
Same read-out and setting: the same measure for B6: “no binding”; for B7: “no binding”; for B8: “no binding”.
On to B9, for which the binding result is recorded as “no binding”.
The same measure, in the same setting: the same measure for B10: “no binding”.
The same measure, in the same setting: the same measure for B11: “no binding”; for B12: “no binding”; for B13: “no binding”.
The same measure, in the same setting: the same measure for B14: “no binding”.
As for B15, the binding result was “no binding”.
Take B16: the binding result is listed as “no binding”.

The next experiment concerns the target T2, human MAdCAM expressed on cells. Nature of the experiment: cell binding.
Turning to B1, the binding result is “binds”.
Same read-out and setting: the same measure for B2: “binds”.
For the molecule B3, the binding result was “binds”.
The same measure, in the same setting: the result for B4 reads “binds”; that for B5, “binds”.
As for B6, the binding result is listed as “binds”.
As for B7, the binding result is recorded as “binds”.
Still for that read-out and setting: the same measure for B8: “binds”.
Same read-out and setting: the result for B9 reads “binds”; that for B10, “binds”.
Still for that read-out and setting: the same measure for B11: “binds”.
Turning to B12, the binding result is “binds”.
Still for that read-out and setting: the same measure for B13: “binds”.
Regarding B14, the binding result is reported as “binds”.
On the same count and under the same terms, the same measure for B15: “binds”; for B16: “binds”.
